B1: OR4K15 (parent)
chain: GUUAACGGUCAUAGGCCAUGGAAACUAGGAGCACCAUUUCGCUGCCAGUGAAGAAAUGAACAAAGAAAAUCUGGGCCAGGCAGGCAUCAAAAGAAAUAGUCUUGCGCUCAACCAGAAAGUCUGUAAUCAUUUUAAGGGUA

The variants in the data set derive from B1. As to the kind of experiment: self-cleavage, relative activity (ratio to wild type); higher = more cleavage; in vitro, sequencing; the parent is a self-cleaving ribozyme.
As to U37C G83A, the self-cleavage came out at 2.15.

On to U39C A63G, for which the self-cleavage turned out to be 1.66.

For the variant A36G G84A, the self-cleavage amounted to 1.88.

In the case of A36U A51G, the self-cleavage amounted to 1.82.

In the case of A36U A51U, the self-cleavage came out at 1.72.

For the variant U39A A68G, the self-cleavage worked out at 1.32.

In the case of U37C A134G, the self-cleavage was 1.32.

With U39A U97C, the self-cleavage is 1.85.

For A36U U103A, the self-cleavage amounted to 0.63.

Turning to A36U U103C, the self-cleavage was determined as 1.16.

As to U37C A60U, the self-cleavage is 1.69.

With U37C A60C, the self-cleavage was determined as 1.44.

For the variant U39A A90G, the self-cleavage was found to be 0.95.

Regarding A36G A129G, the self-cleavage worked out at 1.3.

Consider U38C G84A, for which the self-cleavage is 2.05.

On to A36G C85U, for which the self-cleavage worked out at 0.98.

On to A36U U122C, for which the self-cleavage was found to be 1.15.

Turning to A36U U122A, the self-cleavage is 1.78.

Consider U37C G79U, for which the self-cleavage worked out at 0.12.

Take U37C A96C: the self-cleavage is 0.89.

On to A36U A78C, for which the self-cleavage is 0.23.

U38C G83A: the self-cleavage amounted to 2.15.

On to U38C G83U, for which the self-cleavage was 0.43.

As to U37C A56G, the self-cleavage worked out at 0.73.

Take U38C C109U: the self-cleavage was 0.26.

A36U U130C: the self-cleavage was 1.45.

For the variant A36U A129G, the self-cleavage was determined as 1.12.

With U37C U120A, the self-cleavage came out at 2.58.

In the case of U37C U120C, the self-cleavage is 0.84.

On to U38A U87A, for which the self-cleavage amounted to 2.41.

U39A U43C: the self-cleavage amounted to 1.95.

Consider U39A U43A, for which the self-cleavage stood at 1.66.

Regarding U37C U122C, the self-cleavage turned out to be 1.25.

As for U39A A135G, the self-cleavage turned out to be 1.75.

Turning to U39A A51G, the self-cleavage worked out at 2.15.

On to U37A U70C, for which the self-cleavage came out at 1.21.

In the case of U38A A59G, the self-cleavage worked out at 1.14.

For U38C A126U, the self-cleavage was 1.12.

Regarding U38G A95G, the self-cleavage was 2.17.

U39A U103C: the self-cleavage came out at 2.1.

With U37A A82G, the self-cleavage amounted to 0.61.

For the variant U39A G48U, the self-cleavage was 1.24.

In the case of U38A U49C, the self-cleavage was 1.72.

On to A36G G41A, for which the self-cleavage came to 2.26.

For the variant U37A A126G, the self-cleavage turned out to be 0.44.

As for U38A A118G, the self-cleavage was found to be 2.73.

For the variant U37C A94G, the self-cleavage was found to be 1.76.

A36U A117U: the self-cleavage turned out to be 0.88.

As for A36U A117G, the self-cleavage worked out at 1.52.

With U38C A55G, the self-cleavage stood at 0.93.

For the variant U38C A63G, the self-cleavage came to 1.7.

As to U37C G80U, the self-cleavage stood at 0.11.

In the case of U38C A96G, the self-cleavage was 1.51.

For U38C U100C, the self-cleavage came to 2.28.

On to U37C G115U, for which the self-cleavage stood at 0.37.

On to U39C A78G, for which the self-cleavage was determined as 0.26.

For U38C U43A, the self-cleavage amounted to 2.13.

Turning to U38C U70C, the self-cleavage stood at 1.05.

Take U39A A117U: the self-cleavage came out at 1.81.

As for U39A A111G, the self-cleavage was 0.02.

Consider U38G, for which the self-cleavage is 1.59.

With U38A, the self-cleavage turned out to be 1.44.

For U38C, the self-cleavage was found to be 1.45.

Turning to U37C U130C, the self-cleavage was determined as 0.97.

With U37C U130A, the self-cleavage is 0.91.

Consider U37G A129G, for which the self-cleavage was found to be 1.12.

Turning to U37A A116G, the self-cleavage was 0.18.

For A36U A135U, the self-cleavage amounted to 1.85.

In the case of U37C U49A, the self-cleavage is 1.64.

As for U37C U49G, the self-cleavage turned out to be 0.44.

In the case of U37C U49C, the self-cleavage is 1.71.

In the case of U39C A67U, the self-cleavage was found to be 1.9.

With U39C A67G, the self-cleavage amounted to 1.24.

For U37A A118G, the self-cleavage amounted to 1.4.

Take U38C C88U: the self-cleavage was 2.51.

Take U39C A55G: the self-cleavage worked out at 1.66.

Turning to U38A G48A, the self-cleavage is 1.31.

For the variant U38C A68U, the self-cleavage worked out at 2.15.

U37A A114U: the self-cleavage was found to be 0.06.

Regarding U39A A140G, the self-cleavage came out at 1.16.

U37A U130C: the self-cleavage stood at 0.61.

U39C A91U: the self-cleavage was 1.59.

U38C A91G: the self-cleavage was found to be 1.24.

As to U39A U70C, the self-cleavage amounted to 0.92.

Take A36G U108C: the self-cleavage came out at 0.01.

U38C A135G: the self-cleavage was 1.9.

As to U38C A135U, the self-cleavage was 1.86.

On to U39C A66U, for which the self-cleavage is 1.28.

Regarding U39A A63G, the self-cleavage was determined as 1.95.

For U38C A116G, the self-cleavage came out at 1.09.

With U38C A116U, the self-cleavage is 0.09.

Regarding A36G U124C, the self-cleavage came out at 0.45.

On to U38C U139C, for which the self-cleavage stood at 0.91.

Take U38C U139A: the self-cleavage turned out to be 1.75.

U37C A95G: the self-cleavage was 2.37.

As for A36G A126U, the self-cleavage was determined as 1.76.

For A36G A126G, the self-cleavage is 1.48.

As to U37A U139C, the self-cleavage is 1.19.

With U38A U39C, the self-cleavage amounted to 1.62.

With U38C U103A, the self-cleavage amounted to 0.64.

As for U38C U103C, the self-cleavage is 1.18.

Regarding U38G U127C, the self-cleavage turned out to be 1.37.

U39A A62G: the self-cleavage turned out to be 1.21.

As to U37C A89U, the self-cleavage came to 2.23.

For U37C A89G, the self-cleavage is 1.52.

As to U37C A89C, the self-cleavage was 1.31.

Take U38A A52G: the self-cleavage came to 1.63.

Take U39A G138A: the self-cleavage came to 0.14.

On to U39A A110U, for which the self-cleavage worked out at 2.06.

Regarding U39A A110G, the self-cleavage came out at 0.04.

Consider U38G A96G, for which the self-cleavage was found to be 0.69.

With U38C A69G, the self-cleavage came to 0.88.

Regarding A36U U49A, the self-cleavage was 0.81.

As to A36U U131C, the self-cleavage is 1.87.

U38C A140G: the self-cleavage amounted to 2.16.

U39A A56G: the self-cleavage amounted to 1.59.

Turning to U38C A60G, the self-cleavage was 1.44.

Take A36U A63G: the self-cleavage came out at 1.98.

On to U38C A118U, for which the self-cleavage came to 0.98.

With A36U U72G, the self-cleavage was 0.29.

For U39A U49C, the self-cleavage was found to be 1.

As for U38A G50A, the self-cleavage was determined as 1.07.

Take U39C A51G: the self-cleavage amounted to 1.5.

Consider U37C A98G, for which the self-cleavage amounted to 0.8.

On to U37C A98U, for which the self-cleavage turned out to be 1.84.

Regarding U37C U87C, the self-cleavage was determined as 0.99.

As to U37C G58A, the self-cleavage worked out at 1.14.

U37A G137A: the self-cleavage was 2.24.

In the case of U37C U127C, the self-cleavage stood at 1.08.

Turning to U37C U127A, the self-cleavage is 2.07.

In the case of A36U A55U, the self-cleavage is 0.98.

On to A36U C61U, for which the self-cleavage amounted to 2.41.

In the case of U39C A82U, the self-cleavage was determined as 0.22.

As for U38A U132C, the self-cleavage is 1.58.

U39A U127A: the self-cleavage stood at 1.46.

Regarding A36U A62C, the self-cleavage turned out to be 0.87.

Take U37G U87A: the self-cleavage was determined as 1.38.

For the variant U39A A86G, the self-cleavage was determined as 1.76.

With U37A A69U, the self-cleavage was 1.92.

As to U38C C105U, the self-cleavage is 0.19.

Consider A36G U102C, for which the self-cleavage amounted to 1.88.

For the variant A36G U120G, the self-cleavage was 1.29.

In the case of A36G U120C, the self-cleavage was 1.28.

On to A36G U120A, for which the self-cleavage came to 2.61.

Regarding U39C A60G, the self-cleavage stood at 1.42.

Consider U38A A116G, for which the self-cleavage came out at 0.81.

On to U37A A66G, for which the self-cleavage turned out to be 1.72.

As to U38C A114U, the self-cleavage was 0.15.

For the variant U38G C107U, the self-cleavage worked out at 0.02.

Regarding U38C U120C, the self-cleavage worked out at 1.06.

As to A36U A140G, the self-cleavage was 2.09.

For U37C A92G, the self-cleavage was determined as 0.77.

For the variant U37A U127C, the self-cleavage is 0.71.

Consider U38A A135G, for which the self-cleavage came out at 2.17.

As to U39A A91U, the self-cleavage stood at 0.94.

For U39A U122C, the self-cleavage turned out to be 1.39.

For U38C U39C, the self-cleavage worked out at 1.64.

Consider U37C U39C, for which the self-cleavage was 1.72.

Turning to U38C A62U, the self-cleavage came out at 1.06.

Regarding U38A G75C, the self-cleavage is 0.03.

On to U39A A66G, for which the self-cleavage came out at 1.87.

As to U38C U133C, the self-cleavage worked out at 0.93.

U37A A89G: the self-cleavage came to 0.43.

As to U37C A69U, the self-cleavage is 1.6.

On to U38C U57C, for which the self-cleavage amounted to 0.83.

As for U38C U57A, the self-cleavage was found to be 1.48.

With A36U C71U, the self-cleavage was found to be 0.49.

(Values after the RNAGym collection of RNA variant scans (doi:10.7554/elife.90254).)
